Reference: patent US20250136681A1

Biological target: IL-2 receptor (human)
Experiment: cell-based or functional assay

EC50 of pSTAT5 increase on CD56brightCD16- NK cells (intracellular flow cytometry, human PBMCs): 0.06 nM
Substance: wild type recombinant IL-2 (ligand)
